Test results published in US20210253725A1 (BIONTECH, published 2021).

T1: CD27 expressed on the cell surface (HT1080_CD27 cells) (human, UniProt P26842 20-260)
T1 sequence (looked up): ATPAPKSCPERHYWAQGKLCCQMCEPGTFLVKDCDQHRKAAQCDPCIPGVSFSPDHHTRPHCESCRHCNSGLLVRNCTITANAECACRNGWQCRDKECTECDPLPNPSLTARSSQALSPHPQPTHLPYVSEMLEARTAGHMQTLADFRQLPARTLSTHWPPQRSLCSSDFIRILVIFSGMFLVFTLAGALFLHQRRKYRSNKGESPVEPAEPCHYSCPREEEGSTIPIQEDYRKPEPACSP

T2: CD134 expressed on the cell surface of HT1080_OX40 cells (human, UniProt P43489 29-277)
T2 sequence (looked up): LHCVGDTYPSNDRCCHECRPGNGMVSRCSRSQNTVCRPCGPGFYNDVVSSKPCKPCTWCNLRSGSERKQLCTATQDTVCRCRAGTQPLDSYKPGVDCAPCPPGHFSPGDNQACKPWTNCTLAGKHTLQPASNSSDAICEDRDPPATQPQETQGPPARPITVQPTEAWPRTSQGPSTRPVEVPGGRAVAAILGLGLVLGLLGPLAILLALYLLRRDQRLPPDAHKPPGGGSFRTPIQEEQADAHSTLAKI

T3: CD134 protein (His-tagged, Sino Biological Inc. 10481-H08H) (human, UniProt P43489 29-216)
T3 construct: bought protein coated on ELISA plates; also called OX40; TNFRSF4; not shown: His tag
T3 sequence (looked up): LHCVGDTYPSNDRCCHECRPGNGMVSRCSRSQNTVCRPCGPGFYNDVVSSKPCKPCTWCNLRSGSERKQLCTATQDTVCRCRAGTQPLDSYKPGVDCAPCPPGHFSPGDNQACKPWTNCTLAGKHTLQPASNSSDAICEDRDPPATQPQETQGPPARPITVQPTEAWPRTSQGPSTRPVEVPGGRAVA

T4: CD27 protein (His-tagged, Sino Biological Inc. 10039-H08B1) (human, UniProt P26842 20-192)
T4 construct: bought; coated onto ELISA plates; also called human CD27; recombinant protein; not shown: His tag
T4 sequence (looked up): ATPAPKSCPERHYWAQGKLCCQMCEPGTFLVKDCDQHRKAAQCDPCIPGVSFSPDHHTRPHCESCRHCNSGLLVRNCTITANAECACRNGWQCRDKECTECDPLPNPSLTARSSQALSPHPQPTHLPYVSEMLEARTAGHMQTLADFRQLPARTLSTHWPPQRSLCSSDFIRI

B1: P018.S.03.A.B02 (antibody, V domains shown)
VH: QSLEESGGRLVTPGTPLTLTCTASGFSLSSYDMNWVRQAPGEGLEWIGTITTNSDTYYASWAKGRFTISKTSTTVDLKITSPTTEDTATYFCARGYTTFTLWGQGTLVTVSS
VL: DPVLTQTPSSASEPVGGTVTINCQASQNIYSNLAWYQQKPGQPPKLLIYGASTLESGVPSRFSGSGSGTQFTLTISDLESDDAATYYCQCTDYDSNYVVDFGGGTEVVVK
notes: V regions on human Ig constant parts; also called AB27_42
B2: P018.S.02.A.G01 (antibody, V domains shown)
VH: QSLEESGGRLVTPGTPLTLTCTVSGIDLSSNAMNWVRQAPGKGLEWIGIIYTSGSTYYASWVKGRFTISRTSTTVDLEMTSLTTEDTATYFCARGVTIDWFDLWGQGTLVTVSS
VL: AAVLTQTPSSVSAAVGGTVTINCQSSPSVYSNYLSWFQQKPGQPPKLLIYGASTLTSGVPSRFKGSGSGTQFTLTINDVQSDDAATYWCLGGYGDINDTTFGGGTEVVVK
notes: V regions on human Ig constant parts; also called AB27_37
B3: P018.S.03.A.G06 (antibody, V domains shown)
VH: QSLEESGGDLVKPGASLTLTCTASGFSFSRNNYMCWVRQAPGKGLESIACIHDGNSVGIYYTTWAKGRFTISKTSSTTVTLQMTSLTVADTATYFCARMSYTNDWDPIWGPGTLVTVSS
VL: DIVMTQTPASVEAAVGGTVTIDCQASENIYSLLAWYQQKPGQPPKVLISLASNLASGVPSRFKGSGSGTQFSLTISDLESADAATYYCQGYYYSSSTSYENAFGGGTEVVVS
notes: V regions on human Ig constant parts; also called AB27_59
B4: P018.S.04.A.E04 (antibody, V domains shown)
VH: QSVEESGGRLVTPGTPLTLTCTVSGFSLSTYAMNWIRQAPGKGLEWIGTITTGGSTFFASWAKGRFTISKTSTTVDLKITSPTTEDTATYFCARGGDTGYGFSYFDLWGQGTLVTVSS
VL: AVVLTQTPASVSEPVGGTVTIKCQASENIYSSLAWYQQKPGQPPKLLIYDASTLASGVPSRFKGSGSGTEYTLTISGVQSDDAATYYCQQGYSTSNLVNPFGGGTELVVN
notes: V regions on human Ig constant parts; also called AB27_75
B5: P018.S.11.A.G02 (antibody, V domains shown)
VH: QSVEESGGRLVTPGTPLTLTCTVSGFSLSGYDMSWVRQAPGKGLEWIGYIYGGNTYYANWAKGRFTISKTSTTVDLKMTSPTTEDTATYFCTRVGAGYSGVWAYFNLWGPGTLVTVSS
VL: AQVLTQTPSSVSAAVGGTVTINCQSSQSVDSDNYLAWYQQKPGQPPKLLIYDTSKLASGVPSRFTGSGSGTQFTLTISGVQSDDAATYYCQGTYYNAGWYFAFGGGTEVVVK
notes: V regions on human Ig constant parts; also called AB134_42
B6: P018.S.11.A.D04 (antibody, V domains shown)
VH: QSVEESGGRLVTPGTPLTLTCTVSGFSLNSYDMSWVRQAPGKGLEWIGFISASGSIYFASWAKGRFTISKTSTTVDLKITSPTTEDTATYFCASDSYGWAYVYYFNLWGPGTLVTVSS
VL: AVVLTQTPASVSPAVGGTVTINCRASEDIGSYLGWYQQKPGQPPKLLMHDASDLASGVPSRFSGSGSGTEFTLTISGVQSDDAATYYCQSAWYSSNTDKMAFGGGTEVVVK
notes: V regions on human Ig constant parts; also called AB134_31
B7: P018.S.02.A.F01 (antibody, V domains shown)
VH: QSVEESGGRLVTPGTPLTLTCTVSGFSLSSYAMSWVRQAPGKGLEWIGIISSSGVTYYASWAKGRFTISKTSTTVDLRITGPTTEDTATYFCARDPGYSTGWDYFFRLWGQGTLVTVSS
VL: AIKMTQTPASVSAAVGGTVSINCQASEDIESYLAWYQQKPGQPPKLLIYDASDLPSGVPSRFKGSGSGKQFTLTISGVQSDDAATYYCQHGAYTSSSDFFYAFGGGTEVVVK
notes: V regions on human Ig constant parts; also called AB134_1

These binders were tested against T1, CD27 expressed on the cell surface … (assay: cell-based or functional assay).
Note: test concentration or dose not given here.

IL-8, cross-linked by F(ab')2 fragment [abs. corr.]	IL-8 [abs. corr.]	Binder
1.49	0.366	B1
1.52	0.127	B2
1.36	0.56	B3
1.34	0.641	B4

The binders below were run against T2, CD134 expressed on the cell surface of … (assay: cell-based or functional assay).

Functional assay Cross-linked by F(ab′)2 fragment IL-8 [abs. corr.]	Functional assay IL-8 [abs. corr.]	Binder
2.06	0.27	B5
2.04	0.38	B6
2.34	0.115	B7

These binders were tested against T2, CD134 expressed on the cell surface of … (assay: HT1080_OX40 cells, imaging).

Cellular binding assay [RFU]	Binder
357	B5
530	B6
498	B7

The binders below were run against T3, CD134 protein (His-tagged, Sino …) (assay: ELISA, coated His-tagged CD134).

ELISA [abs. corr.]	Binder
1.07	B5
2.07	B6
2.69	B7

The binders below were run against T4, CD27 protein (His-tagged, Sino …) (assay: ELISA on coated His-tagged CD27).

ELISA [abs. corr.]	Binder
3.41	B1
3.41	B2
3.4	B3
3.38	B4

The binders below were run against T1, CD27 expressed on the cell surface … (assay: cellular binding assay, HT1080_CD27 cells).

Cellular binding assay [RFU]	Binder
308	B1
332	B2
302	B3
283	B4
